Here are results for 6 compounds from patent publication US20210386837A1, “ACTIVE LOW MOLECULAR WEIGHT VARIANTS OF ANGIOTENSIN CONVERTING ENZYME 2 (ACE2) FOR THE TREATMENT OF DISEASES AND CONDITIONS OF THE EYE” (Northwestern University, priority 2020, published 2021).

Entries after “also recorded” stand apart in the source; their conditions may differ.

Data set [1] has as its system Angiotensin II. Nature of the data set: enzymatic activity of ACE2 truncates. Type of data set: biochemical.
Data set [2] deals with Angiotensin II. The conditions noted are these: as disclosed in U.S. Pat. No. 10,443,049; cited from earlier work.
A further data set deals with hTCEpi cells. Nature of the data set: RT-qPCR of inflammation-related genes in siACE2-transfected hTCEpi cells treated with losartan. Type of data set: cell-based. The conditions noted are these: 100 μM losartan, 24 hours. Here is the method: To examine if ACE2 deficiency-induced cytokine production is due to an increase in AngII activity, we investigated whether treatment of corneal epithelial cells with the AngII type 1 receptor (AT1R) antagonist, losartan could rescue the phenotype. hTCEpi deficient in ACE2 were treated with 100 μm losartan for 24 hrs and the cytokine response was evaluated.
Immortalized corneal epithelial cells, hTCEpi, were cultured in keratinocyte serum free media (Thermo Fisher Scientific, Waltham, Mass., USA) as described before^39. For siRNA knock-down experiments, cells were transfected with 10 nM siRNA SMARTpools against ACE2 and non-target control (GE Dharmacon, Colorado, USA) as previously described^37. Two days after transfection, cells were treated with losartan (100 μM) for 24 hours, and processed for total RNA isolation.
Total RNAs were isolated from hTCEpi cells and purified with a miRNeasy kit (Qiagen, Hilden, Germany). Real-time qPCR (RT-qPCR) was performed with a Roche LightCycler 96 System using the Roche FastStart Essential DNA Green Master (Roche, Branchburg, N.J., USA) according to the manufacturer's instructions.
Unpaired t-test were performed to determine statistical significance. The data are shown as means±standard deviation (SD). The differences were considered significant for p values of <0.05. All experiments were replicated at least three times.
For orientation: Quantitative PCR measures a nucleic acid by following its amplification.

Data set [3] is described as follows: duration of action in vivo after one injection (enzymatic activity in plasma, blood pressure). The conditions noted are these: determined by enzymatic activity in plasma and by biologic response (blood pressure).
Data set [4] can be described thus: ACE2 activity in eyes of ACE2-knockout mice after topical corneal application. In kind it is in vivo, mouse. The conditions noted are these: ACE2-KO mice, after one hour; for ACE2 activity in eyes: topical to cornea, 5 μg/μl in PBS or in 0.5% DMSO in PBS, vs untreated. Here is the method: ACE2 activity was assessed in eyes isolated from ACE2-deficient mice.
The nature of data set [5]: anti-ACE2 immunofluorescence of cornea of ACE2-KO mice after NaOH treatment and topical administration. In kind it is in vivo, mouse. The conditions noted are these: cornea treated with NaOH for 30 s, then topical administration. On the procedure:
The corneas of ACE2-KO mice were treated with NaOH for 30 s and then were topically administered ACE2 1-618-ABD. The cornea were subjected to immunofluorescence using anti-ACE2 antibodies. (See FIG. 13).

With “1-522: ACE2 truncate, amino acids 1-522, not enzymatically active [Group 1-522]”, the “enzyme activity of ACE2 truncate” value with Angiotensin II [1] was “not active”.
Regarding “1-605: ACE2 truncate, amino acids 1-605, C-terminal deletion relative to SEQ ID NO:1 [Group 1-605]”, the “enzyme activity of ACE2 truncate” value in the data set with Angiotensin II [1] is on record as “enzymatically active”. Also, the “enzymatic activity of ACE2 fragment” value in the data set on Angiotensin II [2] is on record as “very high enzymatic activity”.
Regarding “1-618: ACE2 truncate, human ACE2 amino acids 1-618 [Group 1-618]”, the “enzyme activity of ACE2 truncate” value with Angiotensin II [1] is given as “enzymatically active”.
“1-619: ACE2 truncate, amino acids 1-619, C-terminal deletion relative to SEQ ID NO:1 [Group 1-619]”: the “enzyme activity of ACE2 truncate” value in the data set on Angiotensin II [1] is listed as “enzymatically active”. The “enzymatic activity of ACE2 fragment” value in the data set with Angiotensin II [2] is given as “very high enzymatic activity”.
As to `CCCCc1nc(Cl)c(CO)n1Cc1ccc(-c2ccccc2-c2nn[nH]n2)cc1` [losartan], the “pro-inflammatory activity / cytokine storm-like phenotype in ACE2 depleted corneal epithelial cells” value in the data set on hTCEpi cells is reported as “partially rescued”. Besides, in the data set with hTCEpi cells (RT-qPCR), the “expression of CCL2” value is reported as “decreased; also recorded: significantly blocked”, the “expression of CXCL8” value was “only slightly altered”, the “expression of IL1B” value is “only slightly altered” and the “expression of ILIA” value was “decreased; also recorded: significantly blocked”. In the data set with hTCEpi cells (RT-qPCR), the “expression of TNFA” value is “decreased; also recorded: significantly blocked”. The “pro-inflammatory activity / cytokine storm-like phenotype in ACE2 depleted corneal epithelial cells” value in the data set on hTCEpi cells (listed as Losartan) is listed as “partially reverse”.
For “ACE2 1-618ABD: human ACE2 amino acids 1-618 fused to albumin binding domain (ABDCon) via a GS4 linker”, in data set [3], the “duration of action of one injection” value is “at least 4 days”. Further, the “effect of DMSO on detectable ACE2 activity in eyes” value in data set [4] (5 μg/μl in 0.5% DMSO in PBS vs in PBS) is listed as “enhance detectable ACE2 activity”. Moreover, the “ACE2 activity in eyes” value was “Detectable ACE2 activity was observed” in data set [4] and “Recovery of ACE2 activity” in data set [4] (listed as hr ACE2 1-618ABD). Further, in data set [5], the “ACE2 staining by immunofluorescence in the cornea” value was “Appearance of ACE2 staining”.
